Experimental findings from US20200030416A1 (CASE WESTERN RESERVE UNIVERSITY, published 2020) are described below.

The assay concerns the target T1, integrin GPIIb-IIIa on ADP-activated human platelets (human, UniProt P08514 32-1039; P05106 27-788).
T1 construct: whole, on cells; no isolated integrin was tested; also called active platelet GPIIb-IIIa
The experiment in a line: human platelets (low platelet concentration, ADP) incubated on coverslips coated with cRGD-modified biotinylated liposomes; anti-CD62P fluorescence microscopy.

Method: LPC was obtained as described previously and incubated with the construct-coated coverslips for 1 hr in the absence or in presence of platelet agonist ADP, under gentle agitation. Post-incubation, the coverslips were gently washed with PBS to remove loosely-bound platelets from the construct-coated surface. […] These stained coverslips were mounted onto glass slides and the fluorescence of active platelets aggregated onto the coverslips was imaged using inverted fluorescence microscopy. […] Platelet aggregation was quantified as the percentage of coverslip surface area covered by platelet fluorescence. All statistical analysis was performed using ANOVA and significance was considered as p<0.05.

B1: cyclic RGD peptide cyclo-CNPRGDY(OEt)RC (cRGD), conjugated to DSPE-PEG and displayed on liposomes (peptide)
peptide: CNPRGDYRC
modifications: not fully specified; cyclised by a disulphide between the terminal cysteines; Y(OEt) = O-ethyl tyrosine; N-terminus conjugated to DSPE-PEG2000-COOH; many copies on a ~150 nm liposome
notes: Tested only as a multivalent decoration on liposomes (2.5 mol %); also called GBP
On to B1, for which the binding result was “binds”.
